Experimental data taken from US20220017604A1 (WASHINGTON UNIVERSITY, published 2022).
Values joined by “and” are separate entries in the source; they are usually repeats but may differ in a detail not shown here. Equal values may be shown once.

B1: murine/human chimeric mAb Ab-1 (2B04) (antibody, V domains shown)
VH: QVQLKQSGPGLVAPSQSLSITCTVSGFSLINYAISWVRQPPGKGLEWLGVIWTGGGTNYNSALKSRLSISKDNSKSQVFLKMNSLQTDDTARYYCARKDYYGRYYGMDYWGQGTSVTVSS
VL: QAVVTQESALTTSPGETVTLTCRSSTGAVTTSNYANWVQEKPDHLFTGLIGGTNNRAPGVPARFSGSLIGDKAALTITGAQTEDEAIYFCALWYNNHWVFGGGTKLTVL
B2: 2H04 (antibody, V domains shown)
VH: EVQLQQSGAELVKPGASVKMSCKASGYTFTSYWITWVKQRPGQGLEWIGDIYPGSGSTKYNEKFRSEATLTVDTSSTTAYMQLSSLTSEDSAVYYCARWDFYGSRTFDYWGQGTTLTVSS
VL: DIVLTQSPAILSVSPGERVSFSCRASQNIGTIIHWYQQRTNGSPRLLIKYASESVSGIPSRFSGSGSGTDFTLSINSVESEDIADYYCQQSSSWPLTFGAGTKLELK
B3: Hu-Ab-1 (Hu-2B04) (antibody, V domains shown)
VH: EVQLQESGPGLVKPSETLSLTCTVSGFSLINYAISWVRQPAGKGLEWLGVIWTGGGTNYNAALKSRLSISKDNSKSQVSLKMNSVTAADTAVYYCARKDYYGRYYGMDYWGQGTTVTVSS
VL: QAVVTQEPSLTVSPGGTVTLTCRSSTGAVTTSNYANWVQEKPGQAFRGLIGGTNNRAPGVPARFSGSLLGDKAALTLSGAQPEDEAEYFCALWYNNHWVFGGGTKLTVLG

Biological target: S protein of infectious SARS-CoV-2 strain 2019 n-CoV/USA_WA1/2020 (SARS-CoV-2, UniProt P0DTC2 14-1273)
Test: cell-based or functional assay

Row | Binder | IC50, focus reduction neutralization test (FRNT) on Vero E6 cells [ng/mL] | IC50, neutralization of infectious SARS-CoV-2 | IC50, live virus neutralization assay [ng/mL]
1 | B1 | 1.46 | < 2 ng/mL and < 500 ng/mL | 
2 | B2 |  | < 500 ng/mL | 
3 | B3 |  |  | 1.65
